In US12012599B2, “Compositions and methods for modulating left-right differentiation factor (LEFTY) and bone morphogenic factor (BMP)” (CZ Biohub SF LLC, priority 2018, dated 2024):

How the values were obtained:
mammary epithelial cells = experiment: 3D organotypic mammary organoid formation; type: cell-based, mouse; conditions: Wnt-dependent organoid culture
Method: FIGS. 8A-8D. Autocrine and paracrine effects of NODAL and LEFTY1 in mammary epithelial cell populations. […] The sorted cells were grown in the 3D organotypic assays to test their organoid formation potential in the presence of NODAL. […] Each dot represents an organoid (n=3). […] Data are represented as median±S.D. Statistical analysis, One-way ANOVA with Dunnet's adjustment, **p<0.01.
FIGS. 9A-9F. Opposing effects of LEFTY1 and BMP7 in mammary organoid formation. […] Data are represented as median±S.D. Statistical analysis, one-way ANOVA with Dunnet's adjustment, *p<0.05; **p<0.01; ***p<0.001.
Since LEFTY1 and BMP7 were able to affect the branching of mammary glands, we hypothesized that the LEFTY1/BMP7 signaling axis may affect the proliferation of mammary epithelial cells. We exposed freshly dissociated mammary epithelial cells to NODAL, LEFTY1, BMP7 and CRIPTO-1 in a modified Wnt-dependent in vitro organoid culture system that was optimized for progenitor cell propagation (Zeng & Nusse, Cell Stem Cell 6, 568-577 (2010) and Jamieson et al., Development 144, 1065-1071 (2017)). In Xenopus, Wnt signaling controls the expression of Nodal and Cripto-1 during gastrulation. Consistent with the evolutionary conservation of the interaction between the Nodal and Wnt pathways (Branford et al., Curr Biol 12, 2136-2141 (2002)), NODAL had no effect on organoid formation in our Wnt-driven culture system (FIG. 8A).
In organoid cultures, the basal cells give rise to mixed phenotype colonies of luminal and basal cells. To prevent the formation of LEFTY1-expressing cells during organoid formation, genetic knockdown of LEFTY1 was done. To knock-down mouse LEFTY1, pSICO-R lentiviral vector was used (Ventura, PNAS, 2004). Different shRNAs were designed and cloned into pSICO-R. The target sequences of the shRNAs cloned were GGACAAGGCTGATGTGGAA (SEQ ID NO: 14) and GCAGGTTCCTGGTGTCAGA (SEQ ID NO: 15). The efficiency of knock-down was tested by transfecting HEK293T cells with pSICO-R-shLEFTY1 constructs with pEGFP-C3-LEFTY1 at 1:4 and 1:20 ratio. Decrease on GFP signal was used to calculate the percentage of inhibition of the shLEFTY sequences. […] (p<0.001 and p<0.01, respectively) (FIGS. 8C-8D and FIGS. 9E-9F).

pSMAD5 = pSMAD5 immunofluorescence in MDA-MB-231; type: cell-based; conditions: 50 ng/mL BMP7 30 minutes, absence or presence of LEFTY 200 ng/mL
Method: (§1) FIGS. 20 and 21 are data from an experiment in which the breast cancer cell line MDA-MB-231 was plated and serum starved for 24 hours. 50 ng/mL BMP7 was added for 30 minutes to activate pSMAD5, either in the absence or presence of exogenous LEFTY (200 ng/mL). LEFTY-BMPR2 interaction, BMP7-BMPR2 interaction (as visualized by Proximity Ligation Assay, red), pSMAD5 status (As visualized by Immunofluorescence, green) were monitored and captured.
as §1, with “Breast” for “FIGS. 20 and 21 are data from an experiment in which the breast”, “(200 ng/mL) and LEFTY Antagonist (sc7408p) increasing in dose from 1x to 256x (x=25” for “(200”

BMPR2 = experiment: LEFTY1 and BMPR2 immunoprecipitation assays; type: binding; conditions: both directions
Source text: FIGS. 5A-5H. LEFTY1 inhibits pSMAD2 and pSMAD5 in the basal mammary epithelial cells. […] KRT8 was used to stain the luminal cells and SMA for basal cells (Magnification 400×). […] Gapdh was used as a housekeeping gene. […] Ten different fields were counted per condition (n=3). Data are represented as median±S.D. Statistical analysis, (a and b) Student's T-test, * p<0.05; (h) One-way ANOVA with Dunnet's adjustment, ****p<0.0001.
FIGS. 7A-7E. LEFTY1 interaction with BMPR2 inhibits the phosphorylation of SMAD5. […] Ten different fields were counted per condition (n=3). […] 48 hours after transfection, cells were washed and incubated with different concentrations of BMP7 (from 0-800 ng/ml) for 16 hours prior to collection of the cells. […] 48 hours after transfection, cells were washed and incubated with different concentrations of LEFTY1 (from 0-200 ng/ml) for 16 hours prior to collection of the cells. […] 48 hours after transfection, cells were washed and incubated with different concentrations of BMP7 and LEFTY1 at the indicated concentrations for 16 hours prior to collection of the cells. Data are represented as median±S.D. Statistical analysis, one-way ANOVA with Dunnet's adjustment, *p<0.05; **p<0.01; ****p<0.0001.
Since BMPR2 is upstream of pSMAD1/5/8, we reasoned that BMPR2 could serve as a common BMP Type II receptor that mediates the BMP7/LEFTY1 axis. […]

ACVR2B = experiment: Proximity ligation assay with other TGF-β receptors; type: binding
Method: FIGS. 5I-5J: LEFTY1 preferentially interacts with BMPR2. […] BMP7-BMPR2 interaction was used as a positive control, and mouse and rabbit IgGs were used as technical negative controls. The interaction of LEFTY with Wnt receptor LRP6 was analyzed as a biological negative control. […] Data are represented as median±S.D. Statistical analysis, one-way ANOVA post-hoc Tukey multiple comparison, ****p<0.0001, ***p<0.001; unless stated analysis is non-significant with p>0.05.
Next, we assessed the interaction of LEFTY with different type I and type II TGF-β receptors. BMP7-BMPR2 interaction was used as a positive control, and mouse and rabbit IgGs were used as technical negative controls. We also analyzed the interaction of LEFTY with Wnt receptor LRP6 as a biological negative control.

binding of LEFTY1 to BMPR2 (pull-down) (BMPR2) | interaction with other TGF-β receptors, ACVR2B (ACVR2B) | Molecule | organoid formation (frequency, number of colonies) (mammary epithelial cells) | organoid size (mammary epithelial cells) | pSMAD5 status (pSMAD5)
– | – | BMP7: bone morphogenetic protein 7, BMPR2 ligand (protein) STGSKQRSQNRSKTPKNQEALRMANVAENSSSDQRQACKKHELYVSFRDLGWQDWIIAPEGYAAYYCEGECAFPLNSYMNATNHAIVQTLVHFINPETVPKPCCAPTQLNAISVLYFDDSSNVILKKYRNMVVRACGCH | significantly decreased | significantly decreased | activates pSMAD5
able to detect the binding | also interacted | LEFTY1: left-right determination factor 1, secreted TGF-β superfamily protein; generic LEFTY may mean LEFTY1 or LEFTY2 (protein, UniProt O75610 77-366, looked up) Left-right determination …: RFSQSFREVAGRFLALEASTHLLVFGMEQRLPPNSELVQAVLRLFQEPVPKAALHRHGRLSPRSARARVTVEWLRVRDDGSNRTSLIDSRLVSVHESGWKAFDVTEAVNFWQQLSRPRQPLLLQVSVQREHLGPLASGAHKLVRFASQGAPAGLGEPQLELHTLDLGDYGAQGDCDPEAPMTEGTRCCRQEMYIDLQGMKWAENWVLEPPGFLAYECVGTCRQPPEALAFKWPFLGPRQCIASETDSLPMIVSIKEGGRTRPQVVSLPNMRVQKCSCASDGALVPRRLQP | increased the number of colonies | – | reduces
